Data on 3 molecules can be found in patent publication US20230331827A1, “POTASSIUM CHANNEL INHIBITORS” (priority 2017, published 2023).

In one test the target is T1, huKv1.3 (Homo sapiens, UniProt P22001).
T1 construct: host or cells: CHO
Put plainly: QPatch automated whole-cell patch-clamp, CHO cells stably expressing huKv1.3 (Example 8). The class given is cell-based. Here is the method: (§1) Knottin Kv 1.3 and ASIC1a blockers expressed in the KnotBody format (see examples 6 and 7) were tested for their ability to inhibit the function of the ion channel targets. The effect of these KnotBodies on cells expressing the human Kv 1.3 (huKv1.3) or human ASIC1a channels was assessed using QPatch automated whole-cell patch-clamp electrophysiology (Sophion).
For the testing of Kv1.3, CHO cells stably expressing huKv1.3 (Charles River Lab) were analysed using the QPatch electrophysiology assay in the presence or absence of the KnotBody fusions or the antibody isotypes (negative) controls. Internal and external physiological solutions were freshly prepared prior to the assay. The extracellular solution contained 145 mM NaCl, 4 mM KCl, 2 mM CaCl2, 1 mM MgCl2, 10 mM HEPES and 10 mM glucose; the pH was adjusted to 7.4 with NaOH; the osmolarity was ~ 305 mOsm/L. The intracellular solution contained: KF (120 mM), KCl (20 mM), HEPES (10 mM) and EGTA (10 mM); the pH was adjusted to 7.2 with KOH; osmolarity was ~ 320 mOsm/L.
A series of depolarising voltage (channel activating) pulses were used to monitor the channel currents upon adding control (extracellular solution) to define a control baseline of current activity. To these measured control currents ascending concentrations of KnotBodies or parental antibody isotypes (control molecules) were applied to the external bathing solution (2.2 µM - 0.5 nM, diluted in the extracellular solution). KnotBodies KB_A12 and KB_A07 (EETI-II fusions) were used as isotype controls for the testing. From a holding voltage of -80 mV a depolarising, activating voltage pulses of +30 or +80 mV were applied for 300 ms, every 5 or 10 seconds. The elicited, maximum outward current values measured during the activating step for each solution exchange period were averaged (n = 3 - 8 for each concentration applied) and plotted as concentration-response curves. KB_A07_ShK, KB_A12_ShK and KB_A07_Kaliotoxin (KTX) fusion proteins all inhibited the huKv1.3 currents in a concentration dependent manner with IC50S of approximately 20 nM, 40 nM and 900 nM respectively.

The next test deals with T2, huASIC1a (Homo sapiens, UniProt P78348).
T2 construct: host or cells: HEK293
T2 sequence (P78348 1-528): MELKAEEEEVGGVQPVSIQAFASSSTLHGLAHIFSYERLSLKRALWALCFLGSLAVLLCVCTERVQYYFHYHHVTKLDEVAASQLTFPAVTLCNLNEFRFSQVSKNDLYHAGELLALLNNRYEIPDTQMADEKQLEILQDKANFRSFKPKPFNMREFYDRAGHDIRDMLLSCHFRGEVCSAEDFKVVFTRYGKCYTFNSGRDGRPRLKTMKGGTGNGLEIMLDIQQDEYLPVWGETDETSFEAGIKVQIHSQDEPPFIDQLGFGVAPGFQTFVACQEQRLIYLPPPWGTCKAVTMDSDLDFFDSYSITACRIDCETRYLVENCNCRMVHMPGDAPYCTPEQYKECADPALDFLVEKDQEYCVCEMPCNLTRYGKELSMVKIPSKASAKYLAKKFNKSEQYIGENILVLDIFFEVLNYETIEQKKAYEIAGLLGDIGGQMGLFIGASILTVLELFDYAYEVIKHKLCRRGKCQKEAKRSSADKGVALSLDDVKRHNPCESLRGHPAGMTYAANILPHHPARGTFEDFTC
Put plainly: QPatch electrophysiology, HEK293 cells stably expressing huASIC1a. In kind it is cell-based. The settings on record: ASIC1a current at pH 6.0 after 15-20 minutes KnotBody pre-incubation, 2.3-6.6 µM. Here is the method: as §1
To functionally assess the ASIC1a KnotBodies, HEK293 cells stably expressing huASIC1a (Sophion) were analysed using a QPatch electrophysiology assay in the presence or absence of the KnotBody fusions (using KB_A12 as a recipient and replacing the original EETI-II donor as shown in Table 8). The “parental” KB_A12 with the EETI-II donor was used as a negative control. Internal and external physiological solutions were freshly prepared prior to the assay. The extracellular solution contained 145 mM NaCl, 4 mM KCl, 2 mM CaCl2, 1 mM MgCl2, 10 mM HEPES and 10 mM glucose; the pH was adjusted to 7.4 with NaOH (for control, resting-state pH) or 6.0 with MES (for acidic, activating-state pH); the osmolarity was ~ 305 mOsm/L. The intracellular solution contained: CsF (140 mM), HEPES (10 mM), NaCl (10 mM) and EGTA/CsOH (1 mM/5 mM); the pH was adjusted to 7.3 with CsOH; osmolarity was ~ 320 mOsm/L.
Throughout ASIC 1a recordings the recording cell membrane voltage was clamped at -60 mV. ASIC1a baseline control currents were elicited by applying external solution at activating pH 6.0 for 3000 ms. This activating pH application was repeated three further times, giving four baseline control ASIC1a currents. The recording cells were then pre-incubated with KnotBody diluted in external solution at pH 7.4 for 15-20 minutes. Following this KnotBody pre-incubation the same concentration of KnotBody in external solution at activating pH 6.0 was applied to the cell recording.
At the end of each KnotBody incubation and subsequent ASIC1a current activation, a full blocking concentration (300 nM) of the ASIC1a knottin inhibitor PcTx1 (positive control) was perfused onto the cell recording and a final activating pH 6.0 external solution was applied. The percentage remaining signal between activating pH 6.0 baseline (i.e. pre-KnotBody) and post-KnotBody incubation was determined.
On the technique in general: The patch-clamp technique gives a direct electrical read-out from membranes.

Another test deals with LOX-1 (Homo sapiens, UniProt P78380). Put plainly: Phage TRF binding assay on LOX-1. The following applies: phage displayed, FIG. 19. How it is done: In order to test the functionality of these adhiron-antibody fusions, monoclonal phage prepared from each clone was assessed for binding to LOX-1 in a TRF binding assay. In this assay, LOX-1 (immobilised directly on Maxisorp™ plates) binding of phage displaying adhiron-antibody fusion was detected using a mouse anti-M13 antibody (GE Healthcare) followed by europium conjugated anti-mouse antibody (Perkin Elmer). Parent KnotBodies KB_A07 and KB_A12 (EETI-II fusions) were included as controls. Proteins cMET-FC, GAS6-CD4, FGFR4-CD4, UPA and B-gal were used to examine non-specific binding.

Setting [1] is: Kv1.3 channels, IgG KnotBody, Table 11A.

T1 sequence (P22001 whole entry): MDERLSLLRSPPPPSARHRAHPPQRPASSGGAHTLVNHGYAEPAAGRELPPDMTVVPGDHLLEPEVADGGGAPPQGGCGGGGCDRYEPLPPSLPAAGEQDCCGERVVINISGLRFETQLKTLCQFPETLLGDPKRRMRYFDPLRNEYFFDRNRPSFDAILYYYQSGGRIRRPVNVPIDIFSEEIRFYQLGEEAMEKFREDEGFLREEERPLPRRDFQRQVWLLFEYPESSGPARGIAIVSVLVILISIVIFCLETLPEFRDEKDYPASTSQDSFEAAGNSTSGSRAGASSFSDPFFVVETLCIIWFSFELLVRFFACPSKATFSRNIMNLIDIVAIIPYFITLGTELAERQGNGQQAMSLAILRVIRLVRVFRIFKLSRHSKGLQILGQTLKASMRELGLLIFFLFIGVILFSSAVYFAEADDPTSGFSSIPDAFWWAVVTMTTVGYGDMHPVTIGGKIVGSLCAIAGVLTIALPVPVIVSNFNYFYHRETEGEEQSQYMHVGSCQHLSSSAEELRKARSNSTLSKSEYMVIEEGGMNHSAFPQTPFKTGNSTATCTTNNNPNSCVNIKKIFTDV

B1: KB_A12_ShK: ShK toxin in VL CDR2 of KB_A12, IgG1 (antibody, V domains shown)
VH: EVQLVESGGGLVRPGGSLRLSCAASGFTFSSYAMSWVRQAPGKGLEWVSAISGSGGSTYYADSVKGRFTISRDNTKNSLYLQMTSLRADDTAFYYCVKDFGPGYGTGWFDYWGPGTLVTVSS
VL: QSVLTQPPSVSEAPRQRVTITCSGSSSNIGNNAVNWYQQLPGKAPKLLIYAAGRRSCIDTIPKSRCTAFQCKHSMKYRLSFCRKTCGTCANSGVSDRFSAAKSGTSASLAINGLRSEDEADYYCAAWDDSLNGYVFGTGTKLTVLG
For B1, the IC50 (as a rule, the concentration that inhibits the measured activity by half) with huKv1.3 (setting [1]) was 20 nM; with huKv1.3 (huKv1.3 currents, text of Example 8, approximately) it was ~40 nM.

B2: KB_A07: EETI-II knottin fused into VL CDR2, D1A12 VH; parental KnotBody, isotype control (antibody, V domains shown)
VH: EVQLVESGGGLVRPGGSLRLSCAASGFTFSSYAMSWVRQAPGKGLEWVSAISGSGGSTYYADSVKGRFTISRDNTKNSLYLQMTSLRADDTAFYYCVKDFGPGYGTGWFDYWGPGTLVTVSS
VL: DIQMTQSPSSLSASVGDRVTITCRASQSISSYLNWYQQKPGKAPKLLIYAAGVCPRILMRCKQDSDCLAGCVCGPNGFCGSRSGVPSRFSGSGSGTDFTLTISSLQPEDFATYYCQQGASPPYTFGQGTKVEIKRT
In the case of B2, the IC50 with huKv1.3 (setting [1]) was > 10000 nM. The “% current remaining” value in the test with huASIC1a came out at 70.9%. For the same molecule, in the test with LOX-1, the “binding to LOX-1” value is listed as “no detectable binding to the LOX-1”.

B3: KB_A12: EETI-II knottin fused into VL CDR2, D1A12 VH; parental KnotBody, isotype control (antibody, V domains shown)
VH: EVQLVESGGGLVRPGGSLRLSCAASGFTFSSYAMSWVRQAPGKGLEWVSAISGSGGSTYYADSVKGRFTISRDNTKNSLYLQMTSLRADDTAFYYCVKDFGPGYGTGWFDYWGPGTLVTVSS
VL: QSVLTQPPSVSEAPRQRVTITCSGSSSNIGNNAVNWYQQLPGKAPKLLIYAAGRCPRILMRCKQDSDCLAGCVCGPNGFCGANSGVSDRFSAAKSGTSASLAINGLRSEDEADYYCAAWDDSLNGYVFGTGTKLTVLGQP
In the case of B3, the IC50 with huKv1.3 (setting [1]) is > 10000 nM. The “% current remaining” value in the test with huASIC1a came to 67.4%. In addition, in the test with LOX-1, the “binding to LOX-1” value is listed as “no detectable binding to the LOX-1”.
